# Source: patent US20220041686A1 (Stanford University, published 2022)
# Experiments:
# Test in all cases: quantification of the flow cytometry plots of panel A (B7H3 Fc staining, CAR MFI), with or without 3 µM grazoprevir [Cont.) B]
# [1] = target: T1, B7H3-SNIP-scFv CAR (extracellular; cis)
# T1 construct: Only the full-length (uncleaved) CAR carries the scFv and is stained by B7H3 Fc; also called B7H3-cis SNIP scFv; B7H3-cis SNIP scFv CAR
# 066 = target: T2, 066
# T2 construct: Construct named only by number on the sheets; also called B7H3-cis SNIP scFv CAR with cleavage site 066
# 065 = target: T3, 065
# T3 construct: Construct named only by number on the sheets; also called B7H3-cis SNIP scFv CAR with cleavage site 065
binder,measurement,setting,value
"B7H3-Fc (Fc fusion, Staining reagent for flow cytometry; not shown: Fc part) LEVQVPEDPVVALVGTDATLCCSFSPEPGFSLAQLNLIWQLTDTKQLVHSFAEGQDQGSAYANRTALFPDLLAQGNASLRLQRVRVADEGSFTCFVSIRDFGSAAVSLQVAAPYSKPSMTLEPNKDLRPGDTVTITCSSYQGYPEAEVFWQDGQGVPLTGNVTTSQMANEQGLFDVHSILRVVLGANGTYSCLVRNPVLQQDAHSSVTITPQRSPTGAVEVQVPEDPVVALVGTDATLRCSFSPEPGFSLAQLNLIWQLTDTKQLVHSFTEGRDQGSAYANRTALFPDLLAQGNASLRLQRVRVADEGSFTCFVSIRDFGSAAVSLQVAAPYSKPSMTLEPNKDLRPGDTVTITCSSYRGYPEAEVFWQDGQGVPLTGNVTTSQMANEQGLFDVHSVLRVVLGANGTYSCLVRNPVLQQDAHGSVTITGQPMT","fold CAR MFI, + Drug over - Drug",[1],70 fold
same,"fold CAR MFI, + Drug over - Drug",066,129 fold
same,"fold CAR MFI, + Drug over - Drug",065,157 fold
